Experimental findings from patent US20210347873A1 (SHANGHAI PHARMAEXPLORER, published 2021) are described below.

In assay [1] the target is biotinylated hBLyS-ECD (human) (UniProt Q9Y275). As to the kind of experiment: ELISA on captured biotinylated hBLyS-ECD; control antibody 66.7 nM. A general note: In an ELISA, binding on a coated surface is turned into a signal by an enzyme label.
Assay [2] has the same target. Description: ELISA on captured biotinylated hBLyS-ECD; control antibody 13.3 nM.
The target is the same in assay [3]. Description: ELISA on captured biotinylated hBLyS-ECD; control antibody 0.107 nM.
Assay [4] shares this target. As to the kind of experiment: ELISA on captured biotinylated hBLyS-ECD; control antibody 0.534 nM.
Assay [5] has the same target. As to the kind of experiment: ELISA on captured biotinylated hBLyS-ECD; control antibody 0.00427 nM.
Assay [6] shares this target. Description: BAFF R-coated ELISA, biotinylated hBLyS-ECD bound in presence of control antibody 4 nM.
For assay [7] the target is unchanged. Description: BAFF R-coated ELISA, biotinylated hBLyS-ECD bound in presence of control antibody 20 nM.
The target is the same in assay [8]. Description: BAFF R-coated ELISA, biotinylated hBLyS-ECD bound in presence of control antibody 0.8 nM.
Assay [9] has the same target. Described as above. This is another data set of the same source.
Assay [10] has the same target. As to the kind of experiment: BAFF R-coated ELISA, biotinylated hBLyS-ECD bound in presence of control antibody 0.16 nM.
Assay [11] shares this target. Described as above. This is another data set of the same source.
Assay [12] has the same target. Description: BAFF R-coated ELISA, biotinylated hBLyS-ECD bound in presence of control antibody 0.032 nM.
Assay [13] shares this target. Description: BAFF R-coated ELISA, biotinylated hBLyS-ECD bound in presence of control antibody 0.0064 nM.
In assay [14] the target is extracellular domain of human BLyS protein (hBLyS-ECD), His-tagged, Ala134-Leu285 (human, UniProt Q9Y275 134-285). As to the kind of experiment: cell-based or functional assay.
Sequence of extracellular domain of human BLyS protein (hBLyS-ECD), His-tagged, Ala134-Leu285 (Q9Y275 134-285): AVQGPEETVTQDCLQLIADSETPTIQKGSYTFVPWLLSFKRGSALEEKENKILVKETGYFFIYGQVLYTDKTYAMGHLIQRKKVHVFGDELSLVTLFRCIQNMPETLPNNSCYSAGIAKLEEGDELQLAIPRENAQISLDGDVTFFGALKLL

Sequence of biotinylated hBLyS-ECD (human) (Q9Y275 134-285): as above

Turning to hIgG Control (antibody), the OD450 nm worked out at 0.144 OD450 nm in assay [1]; 0.103 OD450 nm in assay [2]; 0.117 OD450 nm in assay [3]; 0.141 OD450 nm in assay [4]; 0.121 OD450 nm in assay [5]; 2.15 OD450 nm in assay [6]. Further, the OD450 nm in [7] amounted to 2.01 OD450 nm; in assay [8] it was 1.83 OD450 nm; in [9], 1.85 OD450 nm; in assay [10], 2.04 OD450 nm; in assay [11] it was 1.79 OD450 nm; in [12] it was 1.99 OD450 nm. Further, the OD450 nm in [13] turned out to be 2.01 OD450 nm.

B1: c97A3C2H4 (antibody, V domains shown)
VH: EVKLVESGGGLVQPGGSLKLSCAASGFTFSTYTMSWVRQTPEKRLEWVAYISYGGGSTSYPDTVKGRFTISRDNAKNTLYLQMSSLKSEDTAIYYCTRHVTVVENSMDYWGQGTSVTVSS
VL: DILLTQSPDILSVSPGERVSFSCRASQSIGTSIHWYQQRTNGSPRLLIKYVSESFSGTPSRFSGSGSGTAFTLTINSVESEDIADYYCQQTHSWPWTFGGGTKLEIK
notes: also called chimeric antibody c97A3C2H4
Regarding B1, the “Proportion of B lymphocytes in splenocytes (%), in vivo in mice” value in assay [14] was found to be 28.2%.
